Legend:
cynomolgus PD-1 on cells = molecular target: T1, cynomolgus PD-1 on cells (cynomolgus, UniProt B0LAJ3 25-288); experiment: flow cytometry on cynomolgus PD-1 expressing 293F cells
T1 construct: also called cell surface cynomolgus PD-1
Method: (§1) MFI of the cells was measured by flow cytometry and analyzed by FlowJo.

[1] = molecular target: T2, mouse Fc-tagged human PD-1 protein (human, UniProt Q15116 25-170); experiment: ELISA; antibody coated, mFc-tagged PD-1 titrated
T2 construct: extracellular domain; also called mouse Fc-tagged PD-1 protein; not shown: mouse Fc tag

Human LAG-3 without tag = molecular target: T3, Human LAG-3 without tag (human, UniProt P18627 23-450); experiment: SPR; antibody immobilized, untagged human LAG-3 injected, single-cycle kinetics
T3 construct: extracellular domain; also called untagged LAG-3 ECD protein
T3 sequence (looked up): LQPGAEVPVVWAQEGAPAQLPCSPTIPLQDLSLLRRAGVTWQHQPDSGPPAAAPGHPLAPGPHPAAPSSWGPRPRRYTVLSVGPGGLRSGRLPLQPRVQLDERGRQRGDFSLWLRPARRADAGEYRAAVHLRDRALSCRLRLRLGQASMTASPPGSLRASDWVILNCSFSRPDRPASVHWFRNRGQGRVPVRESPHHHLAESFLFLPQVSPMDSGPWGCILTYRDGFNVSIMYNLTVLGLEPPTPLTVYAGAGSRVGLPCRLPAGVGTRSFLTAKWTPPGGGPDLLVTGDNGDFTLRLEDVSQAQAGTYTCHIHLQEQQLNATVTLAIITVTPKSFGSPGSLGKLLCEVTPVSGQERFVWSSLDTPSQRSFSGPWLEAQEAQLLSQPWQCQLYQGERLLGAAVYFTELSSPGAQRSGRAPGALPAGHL
Method: The chip was regenerated with 10 mM glycine (pH 1.5).
(§2) The sensorgrams of blank surface and buffer channel were subtracted from the test sensorgrams. The experimental data was fitted by 1:1 model using Langmiur analysis.

human PD-1 on cells [2] = molecular target: T4, human PD-1 on cells (human, UniProt Q15116 25-288); experiment: cell-based or functional assay
human LAG-3 on cells [3] = molecular target: T5, human LAG-3 on cells (human, UniProt P18627 23-525); experiment: cell-based or functional assay
T5 sequence (looked up): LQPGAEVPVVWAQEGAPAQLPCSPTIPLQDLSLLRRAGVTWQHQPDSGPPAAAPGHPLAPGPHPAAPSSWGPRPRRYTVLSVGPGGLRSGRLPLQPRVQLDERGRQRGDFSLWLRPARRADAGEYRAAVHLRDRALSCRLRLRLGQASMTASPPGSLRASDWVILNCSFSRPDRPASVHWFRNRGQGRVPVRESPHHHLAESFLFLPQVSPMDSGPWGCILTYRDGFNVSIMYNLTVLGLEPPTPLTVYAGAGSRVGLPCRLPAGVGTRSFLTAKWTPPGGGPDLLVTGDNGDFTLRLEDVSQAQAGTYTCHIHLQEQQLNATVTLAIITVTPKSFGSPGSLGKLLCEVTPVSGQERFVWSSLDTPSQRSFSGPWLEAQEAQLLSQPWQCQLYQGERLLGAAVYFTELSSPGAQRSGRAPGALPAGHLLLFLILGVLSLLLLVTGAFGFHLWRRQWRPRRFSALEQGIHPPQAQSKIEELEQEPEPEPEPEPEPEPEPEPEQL

human CD28 protein = molecular target: T6, human CD28 protein (human, UniProt P10747 19-152); experiment: ELISA, human CD28 coated at 1 ug/mL, antibody added at 0.67 and 6.7 nM, OD450
T6 construct: extracellular domain
Method: (§3) Cross-reactivity to human CD4, CTLA-4 or CD28 was measured by ELISA. Plates were coated with human CD4, CTLA-4 or CD28 at 1 μg/mL overnight at 4° C. […] The plates were then washed and subsequently incubated with corresponding secondary antibody for 60 min. After washing, TMB substrate was added and the color reaction was stopped by 2M HCl.

human CD4 protein = human CD4 protein (human, UniProt P01730 26-390, limits assumed); experiment: ELISA, human CD4 coated at 1 ug/mL, antibody added at 0.67 and 6.7 nM, OD450
Method: as §3

[4] = molecular target: T7, mouse Fc-tagged human LAG-3 protein (human, UniProt P18627 23-450); experiment: ELISA; antibody coated, mFc-tagged LAG-3 titrated
T7 construct: extracellular domain; also called mouse Fc-tagged LAG-3 protein; not shown: mouse Fc tag
T7 sequence (looked up): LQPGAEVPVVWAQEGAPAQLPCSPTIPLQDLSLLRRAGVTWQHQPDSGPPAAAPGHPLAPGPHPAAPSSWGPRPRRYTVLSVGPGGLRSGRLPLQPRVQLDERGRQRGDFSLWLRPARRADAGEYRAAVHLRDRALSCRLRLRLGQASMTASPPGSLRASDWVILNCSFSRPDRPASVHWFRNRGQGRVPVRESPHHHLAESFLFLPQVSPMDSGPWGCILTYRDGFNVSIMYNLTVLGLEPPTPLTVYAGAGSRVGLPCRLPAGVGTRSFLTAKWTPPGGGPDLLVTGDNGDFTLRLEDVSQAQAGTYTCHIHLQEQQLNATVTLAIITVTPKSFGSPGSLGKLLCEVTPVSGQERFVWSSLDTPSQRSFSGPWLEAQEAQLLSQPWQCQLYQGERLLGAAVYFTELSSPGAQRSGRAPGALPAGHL
Method: (§4) The plates were then washed and subsequently incubated with HRP-labeled goat anti-mouse IgG antibody for 1 hour. After washing, TMB substrate was added and the color reaction was stopped by 2M HCl. The absorbance at 450 nm was read using a microplate reader.

[5] = molecular target: T7, mouse Fc-tagged human LAG-3 protein; experiment: flow cytometry; blocking of mFc-LAG-3 binding to MHC-II on Raji cells
Method: The mixture was transferred into the 96-well plates seeded with Raji cells which express MHC-II on the surface. […] The MFI was evaluated by flow cytometry and analyzed by the software FlowJo.

mouse PD-1 protein = molecular target: T8, mouse PD-1 protein (mouse, UniProt Q02242 25-167, limits assumed); experiment: ELISA, antibody coated on the plate, mouse PD-1 (His tag on the sheet) added at 0.25, 2.5 and 25 nM, OD450
T8 sequence (looked up): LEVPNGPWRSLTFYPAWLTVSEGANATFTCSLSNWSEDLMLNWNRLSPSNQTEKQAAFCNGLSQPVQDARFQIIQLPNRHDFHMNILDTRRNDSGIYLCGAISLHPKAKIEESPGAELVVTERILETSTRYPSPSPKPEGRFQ
Method: as §4, with “After blocking and washing, various concentrations of mouse PD-1 protein were added to the plates and incubated at room temperature for 1 hour. The plates” for “The plates”

[6] = molecular target: T2, mouse Fc-tagged human PD-1 protein; experiment: dual-binding ELISA; mFc-PD-1 coated, antibody titrated, detected by His-tagged LAG-3 and anti-His-HRP
human PD-1 on cells [7] = molecular target: T4, human PD-1 on cells; experiment: flow cytometry; competition with mFc-PD-L1 on PD-1 expressing CHO-S cells
Method: The mixture was transferred into the 96-well plates seeded with PD-1 expressing CHO-S cells. […] The MFI was evaluated by flow cytometry and analyzed by the software FlowJo.

[8] = molecular target: T9, cynomolgus LAG-3 on cells (cynomolgus); experiment: flow cytometry on cynomolgus LAG-3 expressing 293F cells
T9 construct: whole, on cells; also called cell surface cynomolgus LAG-3
Method: as §1

[9] = molecular target: T10, His-tagged human PD-1 protein (MW: 40 KD) (human, UniProt Q15116 25-167); experiment: SPR Biacore 8K; antibody captured on anti-human Fc, His-PD-1 injected
T10 construct: not shown: His tag
Method: Binding affinity of the bispecific antibodies to the antigen were determined by SPR assay using Biacore 8K. PD-1×LAG-3 antibodies were captured on an anti-human IgG Fc antibody immobilized CMS sensor chip (GE).
as §2

human CTLA-4 protein = molecular target: T11, human CTLA-4 protein (human, UniProt P16410 36-161); experiment: ELISA, human CTLA-4 coated at 1 ug/mL, antibody added at 0.67 and 6.7 nM, OD450
T11 construct: extracellular domain
Method: as §3

human LAG-3 on cells [10] = molecular target: T5, human LAG-3 on cells; experiment: flow cytometry on human LAG-3 expressing 293F cells
Method: (§5) MFI of the cells was measured by flow cytometry and analyzed by FlowJo (version 7.6.1).

human PD-1 on cells [11] = molecular target: T4, human PD-1 on cells; experiment: flow cytometry on human PD-1 expressing cells
Method: as §5

T10 sequence (Q15116 25-167 limits assumed): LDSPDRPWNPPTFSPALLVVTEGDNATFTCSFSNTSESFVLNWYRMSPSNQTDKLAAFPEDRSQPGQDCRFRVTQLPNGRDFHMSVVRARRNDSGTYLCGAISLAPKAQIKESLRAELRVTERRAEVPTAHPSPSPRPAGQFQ
T4 sequence (Q15116 25-288): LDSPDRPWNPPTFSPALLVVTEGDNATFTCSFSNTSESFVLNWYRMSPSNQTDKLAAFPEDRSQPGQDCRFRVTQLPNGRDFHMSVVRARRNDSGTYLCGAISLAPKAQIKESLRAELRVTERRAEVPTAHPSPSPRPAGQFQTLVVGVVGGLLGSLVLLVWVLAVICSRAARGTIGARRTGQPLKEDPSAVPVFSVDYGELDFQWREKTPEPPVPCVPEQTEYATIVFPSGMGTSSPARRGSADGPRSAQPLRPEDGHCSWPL
T2 sequence (Q15116 25-170): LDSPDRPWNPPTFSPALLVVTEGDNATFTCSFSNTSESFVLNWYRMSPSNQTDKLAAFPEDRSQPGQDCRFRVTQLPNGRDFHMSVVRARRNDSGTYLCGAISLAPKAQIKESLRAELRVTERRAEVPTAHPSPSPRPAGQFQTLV
T1 sequence (B0LAJ3 entry or part of it limits assumed): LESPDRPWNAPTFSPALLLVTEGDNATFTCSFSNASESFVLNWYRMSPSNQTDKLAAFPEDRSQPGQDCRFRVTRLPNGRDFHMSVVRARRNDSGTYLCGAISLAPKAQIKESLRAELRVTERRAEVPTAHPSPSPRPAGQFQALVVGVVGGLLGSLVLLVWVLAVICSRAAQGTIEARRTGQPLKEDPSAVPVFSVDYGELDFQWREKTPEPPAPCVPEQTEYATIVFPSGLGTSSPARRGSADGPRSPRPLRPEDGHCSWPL
T11 sequence (P16410 36-161): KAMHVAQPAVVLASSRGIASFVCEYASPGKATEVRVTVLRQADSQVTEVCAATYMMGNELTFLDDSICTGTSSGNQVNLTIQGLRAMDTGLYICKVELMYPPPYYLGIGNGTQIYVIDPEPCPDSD

EC50 (cynomolgus PD-1 on cells): 310 pM | EC50 [1]: 70 pM | Kd (Human LAG-3 without tag): 26.5 pM | koff (Human LAG-3 without tag): 1.89e-05 s⁻¹ | kon (Human LAG-3 without tag): 714000 M⁻¹ s⁻¹ | EC50 of NFAT pathways enhancement (luciferase reporter) (human PD-1 on cells [2]): 410 pM | EC50 of IL-2 pathways enhancement (luciferase reporter) (human LAG-3 on cells [3]): 320 pM | binding result (human CD28 protein): no binding (tested: 6.7 nM) | binding result (human CD4 protein): no binding (tested: 6.7 nM) | EC50 [4]: 320 pM | IC50 [5]: 1680 pM | binding result (mouse PD-1 protein): no binding (tested: 25 nM (mouse PD-1)) | EC50 [6]: 50 pM | IC50 (human PD-1 on cells [7]): 1090 pM | EC50 [8]: 20900 pM | Kd [9]: 2160 pM | koff [9]: 0.000592 s⁻¹ | kon [9]: 275000 M⁻¹ s⁻¹ | binding result (human CTLA-4 protein): no binding (tested: 6.7 nM) | EC50 (human LAG-3 on cells [10]): 5880 pM | EC50 (human PD-1 on cells [11]): 1340 pM
B1: W365-U6T1.G15-1.uIgG4.SP (bispecific antibody)
heavy: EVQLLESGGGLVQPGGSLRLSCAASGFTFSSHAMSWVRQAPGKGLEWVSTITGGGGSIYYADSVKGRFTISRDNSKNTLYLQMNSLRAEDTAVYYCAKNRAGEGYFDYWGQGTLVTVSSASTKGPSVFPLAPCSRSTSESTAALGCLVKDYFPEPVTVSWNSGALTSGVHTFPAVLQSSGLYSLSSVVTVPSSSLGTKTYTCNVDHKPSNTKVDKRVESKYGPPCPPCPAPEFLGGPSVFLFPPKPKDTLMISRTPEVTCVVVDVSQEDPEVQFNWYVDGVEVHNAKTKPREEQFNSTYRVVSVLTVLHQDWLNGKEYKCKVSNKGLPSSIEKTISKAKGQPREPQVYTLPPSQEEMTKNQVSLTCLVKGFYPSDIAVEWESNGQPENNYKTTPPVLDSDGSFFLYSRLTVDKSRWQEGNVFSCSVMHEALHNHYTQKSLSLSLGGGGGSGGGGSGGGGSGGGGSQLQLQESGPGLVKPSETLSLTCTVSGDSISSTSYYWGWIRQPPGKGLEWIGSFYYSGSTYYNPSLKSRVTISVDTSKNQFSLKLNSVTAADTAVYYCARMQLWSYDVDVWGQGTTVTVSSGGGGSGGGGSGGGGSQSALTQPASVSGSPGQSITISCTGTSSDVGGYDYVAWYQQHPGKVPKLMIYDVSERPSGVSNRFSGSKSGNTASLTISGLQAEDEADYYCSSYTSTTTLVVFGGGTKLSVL
light: SYELTQPLSVSVALGQTARITCGGDNIGNKDVHWYQQKPGQAPVLVIYRDSNRPSGIPEGFSGSNSGNTATLTISRAQAGDEADYYCQVWDSIWVFGGGTKLTVLGQPKAAPSVTLFPPSSEELQANKATLVCLISDFYPGAVTVAWKADSSPVKAGVETTTPSKQSNNKYAASSYLSLTPEQWKSHKSYSCQVTHEGSTVEKTVAPTECS
notes: Anti-PD-1 (W3055-1.153.7) human IgG4 S228P; also called W365-G15

Source: patent US20210115138A1 (WUXI BIOLOGICS IRELAND, published 2021)
